The values below come from patent US11015206B2, “Compositions and methods comprising sequences having hydroxyphenylpyruvate dioxygenase (HPPD) activity” (PIONEER HI-BRED INTERNATIONAL, INC., priority 2014, dated 2021).

What all share (type): biochemical, Z. mays
Data set [1] has as its system 4-hydroxyphenylpyruvate dioxygenase (HPPD). Nature of the data set: OFF rate ratio: release of inhibitor from pre-formed enzyme-inhibitor complex. Conditions: Table 7; tembotrione; combinatorial variants. The method in brief:
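Inhibitor release from pre-formed complex (enzyme 7.2 μM, inhibitor 8 μM, 1 h RT) tracked as accelerating HPPD activity at 320 nm over 12 min, coupled via 50 nM HGD with 100 μM HPP at pH 7. OFF rate ratio: steady-state velocity relative to uninhibited initial velocity.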

The test system is the same in data set [2]. The data set is described as follows: Insensitivity parameter (ON × OFF) and trait fitness (ON × OFF × kcat/KM or × kcat). Further details: key to ON × OFF / Insensitivity, mesotrione, ON × OFF / Insensitivity, tembotrione, ON × OFF / Insensitivity, topramezone, ON × OFF / Insensitivity, sulcotrione, ON × OFF / Insensitivity, isoxaflutole (DKN), ON × OFF: insensitivity = ON rate ratio × OFF rate ratio (surrogate for KD). The method in brief: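 Trait fitness combines catalysis and insensitivity as kcat/KM × ON rate ratio × OFF rate ratio. The insensitivity parameter is the product of ON and OFF rate ratios, used in place of KD because the ON rate ratio is inverse.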

The test system is the same in data set [3]. The data set is described as follows: ON rate ratio: HPPD reaction rate with vs without inhibitor in the 70 to 90 second interval. Conditions: Table 7; tembotrione; combinatorial variants. An outline of the steps:
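Indicator of inhibitor on-rate: reaction velocity in the 70 to 90 second window with 4 μM inhibitor divided by that without. Reactions contained 100 μM HPP and 60 or 120 nM HPPD; slower binding gives a larger ratio.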

The test system is the same in data set [4]. The data set is described as follows: Estimate of kcat from initial rate at saturating hydroxyphenylpyruvate without inhibitor (ON rate ratio assay). The method in brief: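 kcat was estimated from the initial reaction rate with known enzyme level (60 or 120 nM HPPD). Hydroxyphenylpyruvate was at a saturating 100 μM, with no inhibitor present.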
[5] abbreviates: Table 7, tembotrione, combinatorial variants.
The mark [6] stands for this setting: Table 7, combinatorial variants.

B1: Mz wt (protein)
chain: MGPTPTAAAAGAAVAAASAAEQAAFRLVGHRNFVRFNPRSDRFHTLAFHHVELWCADAASAAGRFSFGLGAPLAARSDLSTGNSAHASLLLRSGSLSFLFTAPYAHGADAATAALPSFSAAAARRFAADHGLAVRAVALRVADAEDAFRASVAAGARPAFGPVDLGRGFRLAEVELYGDVVLRYVSYPDGAAGEPFLPGFEGVASPGAADYGLSRFDHIVGNVPELAPAAAYFAGFTGFHEFAEFTTEDVGTAESGLNSMVLANNSENVLLPLNEPVHGTKRRSQIQTFLDHHGGPGVQHMALASDDVLRTLREMQARSAMGGFEFMAPPTSDYYDGVRRRAGDVLTEAQIKECQELGVLVDRDDQGVLLQIFTKPVGDRPTLFLEIIQRIGCMEKDEKGQEYQKGGCGGFGKGNFSQLFKSIEDYEKSLEAKQAAAAAAAQGS
modifications: Zea mays
In general, kcat refers to the maximal rate divided by the concentration of active sites. On to B1, for which, in data set [1], the OFF rate ratio came to 0.033. The “ON × OFF” value in data set [2] (Megatable 3, shuffled variants) amounted to 0.007; in data set [2] (setting [5]) it was 0.007. The “ON × OFF × kcat” value is 0.68 in data set [2] (Megatable 3, shuffled variants) and 0.68 in data set [2] (setting [5]). The ON rate ratio in data set [3] is on record as 0.213. For the same molecule, the kcat in data set [4] (Megatable 3, shuffled variants) is 1.62 s⁻¹; in data set [4] (setting [6]), 1.62 s⁻¹.

B2: P056028-F-04 (protein)
chain: MGPTPTATAAGAAVAAASAAEQAAFRLVGHRNFVRFNPRSDRFQTLAFHHVELWCADAASAAGRFSFALGVPLAARSDLSTGNSAHASLLLRSGSLSLLFTAPYAHGADAATAALPSFSAAAARRFAADHGLAVRAVALRVADAEDAFRASVAAGARPAFGPVDLGRGFRLAEVELYGDVVLRYVSYPDGAAGEPFLPGFEGVASPGAADYGLSRFDHIVGNVPELAPAAAYMAGFTGFHEFAEFTTEDVGTTESGLNSMALANNSENVLLPLNEPVHGTKRRSQIQTFLDHHGGPGVQHIALASDDVLRTLREMRARSAMGGFEFLPPPLSDYYDGVRRCAGDVLTEAQINECQELGVMVDRDDEGVLLQIFTKPVGDRPTFFLELIQRIGCMEKDEKGQEYQKGGCGGFGKGNFGQLFKSIEDYEKSLEAKQAAAAATAQGS
modifications: Zea mays variant form created by artificial means.
With B2, the OFF rate ratio in data set [1] is 0.245. In addition, the “ON × OFF” value in data set [2] (Megatable 3, shuffled variants) worked out at 0.161; in data set [2] (setting [5]), 0.161. Moreover, the “ON × OFF × kcat” value in data set [2] (Megatable 3, shuffled variants) stood at 2.70; in data set [2] (setting [5]), 2.70. Further, in data set [3], the ON rate ratio stood at 0.660. The kcat in data set [4] (Megatable 3, shuffled variants) is 0.278 s⁻¹; in data set [4] (setting [6]), 0.278 s⁻¹.

B3: P056028-F-08 (protein)
chain: MGPTPTATAAGAAVAAASAAEQAAFRLVGHRNFVRFNPRSDRFQTLAFHHVELWCADAASAAGRFSFALGVPLAARSDLSTGNSAHASLLLRSGSLSLLFTAPYAHGADAATAALPSFSAAAARRFAADHGLAVRAVALRVADAEDAFRASVAAGARKAFGPVDLGRGFRLAEVELYGDVVLRYVSYPDGAAGEPFLPGFEGVASPGAADLGLSRFDHIVGNVPELAPAAAYMAGFTGFHEFAEFTTEDVGTTESGLNSMALANNSENVLLPLNEPVHGTKRRSQIQTFLDHHGGPGVQHIALASDDVLRTLREMRARSAMGGFEFLPPPLSDYYDGVRKCAGDVLTEAQINECQELGVMVDRDDEGVLLQIFTKPVGDRPTFFLEIIQRIGCMEKDEKGQEYQKGGCGGFGKGNFGQLFKSIEDYEKSLEAKQAAAAATAQGS
modifications: Zea mays variant form created by artificial means.
In the case of B3, in data set [1], the OFF rate ratio stood at 0.377. The “ON × OFF” value was determined as 0.266 in data set [2] (Megatable 3, shuffled variants) and 0.266 in data set [2] (setting [5]). Besides, the “ON × OFF × kcat” value is recorded as 3.23 in data set [2] (Megatable 3, shuffled variants) and 3.23 in data set [2] (setting [5]). In addition, the ON rate ratio in data set [3] was 0.705. Besides, the kcat in data set [4] (Megatable 3, shuffled variants) was 0.202 s⁻¹; in data set [4] (setting [6]), 0.202 s⁻¹.

B4: P056028-F-09 (protein)
chain: MGPTPTATAAGAAVAAASAAEQAAFRLVGHRNFVRFNPRSDRFQTLAFHHVELWCADAASAAGRFSFALGVPLAARSDLSTGNSAHASLLLRSGSLSLLFTAPYAHGADAATAALPSFSAAAARRFAADHGLAVRAVALRVADAEDAFRASVAAGARPAFGPVDLGRGFRLAEVELYGDVVLRYVSYPDGAAGEPFLPGFEGVASQGAADYGLSRFDHIVGNVPELAPAAAYMAGFTGFHEFAEFTTEDVGTTESGLNSMALANNSENVLLPLNEPVHGTKRRSQIQTFLDHHGGPGVQHIALASDDVLRTLREMRARSAMGGFEFLPPPLSDYYDGVRRCAGDVLTEAQINECQELGVMVDRDDEGVLLQIFTKPVGDRPTFFLELIQRIGCMEKDEKGQEYQKGGCGGFGKGNFGQLFKSIEDYEKSLEAKQAAAAATAQGS
modifications: Zea mays variant form created by artificial means.
Take B4: the OFF rate ratio in data set [1] turned out to be 0.360. The “ON × OFF” value in data set [2] (Megatable 3, shuffled variants) is 0.252; in data set [2] (setting [5]) it was 0.252. The “ON × OFF × kcat” value amounted to 4.30 in data set [2] (Megatable 3, shuffled variants) and 4.30 in data set [2] (setting [5]). The ON rate ratio in data set [3] is reported as 0.700. Besides, the kcat in data set [4] (Megatable 3, shuffled variants) is 0.285 s⁻¹; in data set [4] (setting [6]), 0.285 s⁻¹.

B5: P056028-G-10 (protein)
chain: MGPTPTATAAGAAVAAASAAEQAAFRLVGHRNFVRFNPRSDRFQTLAFHHVELWCADAASAAGRFSFALGVPLAARSDLSTGNSAHASLLLRSGSLSLLFTAPYAHGADAATAALPSFSAAAARRFAADHGLAVRAVALRVADAEDAFRASVAAGARKAFGPVDLGRGFRLAEVELYGDVVLRYVSYPDGAAGEPFLPGFEGVASPGAADYGLSRFDHIVGNVPELAPAAAYMAGFTGFHEFAEFTTEDVGTTESGLNSMALANNSENVLLPLNEPVHGTKRRSQIQTFLDHHGGPGVQHIALASDDVLRTLREMRARSAMGGFEFPPPPLSDYYDGVRRCAGDVLTEAQINECQELGVMVDRDDEGVLLQIFTKPVGDRPTFFLEIIQRIGCMEKDEKGQEYQKGGCGGFGKGNFQQLFKSIEDYEKSLEAKQAAAAATAQGS
modifications: Zea mays variant form created by artificial means.
Turning to B5, in data set [1], the OFF rate ratio came out at 0.259. Besides, the “ON × OFF” value in data set [2] (Megatable 3, shuffled variants) is 0.157; in data set [2] (setting [5]), 0.157. The “ON × OFF × kcat” value amounted to 4.61 in data set [2] (Megatable 3, shuffled variants) and 4.61 in data set [2] (setting [5]). Besides, in data set [3], the ON rate ratio is 0.607. Besides, the kcat in data set [4] (Megatable 3, shuffled variants) is 0.488 s⁻¹; in data set [4] (setting [6]), 0.488 s⁻¹.

B6: P056028-F-07 (protein)
chain: MGPTPTATAAGAAVAAASAAEQAAFRLVGHRNFVRFNPRSDRFQTLAFHHVELWCADAASAAGRFSFALGVPLAARSDLSTGNSAHASLLLRSGSLSLLFTAPYAHGADAATAALPSFSAAAARRFAADHGLAVRAVALRVADAEDAFRASVAAGARPAFGPVDLGRGFRLAEVELYGDVVLRYVSYPDGGAGEPFLPGFEGVASPGAADYGLSRFDHIVGNVPELAPAAAYMAGFTGFHEFAEFTTEDVGTTESGLNSMALANNSENVLLPLNEPVHGTKRRSQIQTFLDHHGGPGVQHIALASDDVLRTLREMRARSAMGGFEFLPPPLSDYYDGVRKCAGDVLTEAQINECQELGVMVDRDDEGVLLQIFTKPVGDRPTFFLEIIQRIGCMEKDEKGQEYQKGGCGGFGKGNFGQLFKSIEDYEKSLEAKHAAAAATAQGS
modifications: Zea mays variant form created by artificial means.
For B6, in data set [1], the OFF rate ratio came to 0.322. In addition, the “ON × OFF” value came to 0.236 in data set [2] (Megatable 3, shuffled variants) and 0.236 in data set [2] (setting [5]). Moreover, the “ON × OFF × kcat” value in data set [2] (Megatable 3, shuffled variants) is listed as 5.04; in data set [2] (setting [5]) it was 5.04. In data set [3], the ON rate ratio is listed as 0.735. Further, the kcat in data set [4] (Megatable 3, shuffled variants) was 0.357 s⁻¹; in data set [4] (setting [6]) it was 0.357 s⁻¹.

B7: P056028-F-06 (protein)
chain: MGPTPTATAAGAAVAAASAAEQAAFRLVGHRNFVRFNPRSDRFQTLAFHHVELWCADAASAAGRFSFALGVPLAARSDLSTGNSAHASLLLRSGSLSLLFTAPYAHGADAATAALPSFSAAAARRFAADHGLAVRAVALRVADAEDAFRASVAAGARPAFGPVDLGRGFRLAEVELYGDVVLRYVSYPDGGAGEPFLPGFEGVASSGAADLGLNRFDHIVGNVPELAPAAAYMAGFTGFHEFAEFTTEDVGTTESGLNSMALANNSENVLLPLNEPVHGTKRRSQIQTFLDHHGGPGVQHIALASDDVLRTLREMRARSAMGGFEFLPPPLSDYYDGVRKCAGDVLTEAQINECQKLGVMVDRDDEGVLLQIFTKPVGDRPTFFLELIQRIGCMEKDEKGQEYQKGGCGGFGKGNFGQLFKSIEDYEKSLEAKQAAAAATAQGS
modifications: Zea mays variant form created by artificial means.
Take B7: the OFF rate ratio in data set [1] amounted to 0.305. For the same molecule, the “ON × OFF” value in data set [2] (Megatable 3, shuffled variants) was 0.225; in data set [2] (setting [5]), 0.225. Further, the “ON × OFF × kcat” value in data set [2] (Megatable 3, shuffled variants) is 3.25; in data set [2] (setting [5]), 3.25. In addition, the ON rate ratio in data set [3] is reported as 0.739. Besides, the kcat in data set [4] (Megatable 3, shuffled variants) is 0.242 s⁻¹; in data set [4] (setting [6]), 0.242 s⁻¹.
